125 sequences from the supplement of paper PMC9112550, “Optimization of the antimicrobial peptide Bac7 by deep mutational scanning” (BMC Biology, 2022) can be followed below.

The data set concerns Escherichia coli TOP10. The experiment in a line: shrunken log2 fold change of peptide-encoding DNA abundance (4.5 h post-induction vs induction); higher = less antimicrobial activity (less host growth inhibition). Conditions: time post-induction: 4.5 h; library: site-saturation at positions 5, 18, 19, 20.
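Further: peptides expressed intracellularly from a pBAD plasmid library in pooled LB shake-flask culture, induced with 0.3% L-arabinose, DNA abundance read by NGS, three biological replicates, DESeq2 with apeglm shrinkage.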

Take RRIRYRPPRLPRPRPRPDRQPRP: the “shrunken log2 fold change” value is -0.0345. For RRIRVRPPRLPRPRPRPPVQPRP, the “shrunken log2 fold change” value was 0.377. As to RRIRERPPRLPRPRPRPDIHPRP, the “shrunken log2 fold change” value was -0.512.

As for RRIRYRPPRLPRPRPRPDAMPRP, the “shrunken log2 fold change” value is -0.0326.

Turning to RRIRWRPPRLPRPRPRPWLYPRP, the “shrunken log2 fold change” value is -0.128. As to RRIRWRPPRLPRPRPRPCNLPRP, the “shrunken log2 fold change” value is -0.161.

On to RRIRDRPPRLPRPRPRPVWIPRP, for which the “shrunken log2 fold change” value was -0.125. With RRIRRRPPRLPRPRPRPSGLPRP, the “shrunken log2 fold change” value stood at 0.00401.

Consider RRIRDRPPRLPRPRPRPAEQPRP, for which the “shrunken log2 fold change” value is 0.0426. Next, RRIRRRPPRLPRPRPRPTPCPRP: 0.774; RRIRFRPPRLPRPRPRPESCPRP: -0.141. Next, RRIRTRPPRLPRPRPRPVNDPRP: 0.0249; RRIRWRPPRLPRPRPRPLVKPRP: 0.147; RRIRYRPPRLPRPRPRPTIIPRP: -0.669. Next, RRIRIRPPRLPRPRPRPHKDPRP: -0.447; RRIRPRPPRLPRPRPRPTGRPRP: 0.459; RRIRGRPPRLPRPRPRPPSAPRP: 1.07. Regarding RRIRKRPPRLPRPRPRPGQKPRP, the “shrunken log2 fold change” value was 0.212.

For the sequence RRIRGRPPRLPRPRPRPRRKPRP, the “shrunken log2 fold change” value was determined as 0.742. As for RRIRQRPPRLPRPRPRPWEPPRP, the figure is 0.106; as for RRIRTRPPRLPRPRPRPLTAPRP, -0.32.

Regarding RRIRSRPPRLPRPRPRPRWVPRP, the “shrunken log2 fold change” value is 0.218. As for RRIRWRPPRLPRPRPRPSWNPRP, the “shrunken log2 fold change” value was -0.212. Consider RRIRFRPPRLPRPRPRPTKPPRP, for which the “shrunken log2 fold change” value is -0.00249. With RRIRERPPRLPRPRPRPASDPRP, the “shrunken log2 fold change” value was -0.105.

In the case of RRIRKRPPRLPRPRPRPYMVPRP, the “shrunken log2 fold change” value is -0.211. As for RRIRKRPPRLPRPRPRPYDTPRP, the “shrunken log2 fold change” value is -0.246.

Turning to RRIRVRPPRLPRPRPRPEEHPRP, the “shrunken log2 fold change” value was -0.0681. Next, RRIRNRPPRLPRPRPRPRYQPRP: -0.19. Next, RRIRERPPRLPRPRPRPFTYPRP: -0.0534; RRIRYRPPRLPRPRPRPRLTPRP: -0.0803; RRIRLRPPRLPRPRPRPYAQPRP: -0.599.

Consider RRIRNRPPRLPRPRPRPLARPRP, for which the “shrunken log2 fold change” value was determined as 0.107. As for RRIRYRPPRLPRPRPRPICFPRP, the figure is -0.332. As for RRIRKRPPRLPRPRPRPPKWPRP, the figure is 0.0966; as for RRIRVRPPRLPRPRPRPEMAPRP, 0.311. As to RRIRARPPRLPRPRPRPKKAPRP, the “shrunken log2 fold change” value was found to be 0.285.

For the sequence RRIRSRPPRLPRPRPRPPNVPRP, the “shrunken log2 fold change” value came to 0.0837. Next, RRIRMRPPRLPRPRPRPKMSPRP: 0.123. Regarding RRIRNRPPRLPRPRPRPEDKPRP, the “shrunken log2 fold change” value came to 0.114. Regarding RRIRIRPPRLPRPRPRPMTHPRP, the “shrunken log2 fold change” value was -0.996. Take RRIRDRPPRLPRPRPRPSRSPRP: the “shrunken log2 fold change” value was determined as 0.0199.

On to RRIRSRPPRLPRPRPRPQQMPRP, for which the “shrunken log2 fold change” value was -0.155. For the sequence RRIRDRPPRLPRPRPRPHKIPRP, the “shrunken log2 fold change” value was -0.524.

As for RRIRGRPPRLPRPRPRPIMFPRP, the “shrunken log2 fold change” value stood at 0.382.

For RRIRLRPPRLPRPRPRPQKDPRP, the “shrunken log2 fold change” value is -0.449. Next, RRIRSRPPRLPRPRPRPHDRPRP: -0.138; RRIRKRPPRLPRPRPRPSWAPRP: 0.186. As for RRIRKRPPRLPRPRPRPTWIPRP, the figure is 0.00938; as for RRIRARPPRLPRPRPRPFELPRP, -0.146; as for RRIRPRPPRLPRPRPRPIMTPRP, 0.0516.

Consider RRIRPRPPRLPRPRPRPRRRPRP, for which the “shrunken log2 fold change” value came out at 0.41. As for RRIRPRPPRLPRPRPRPHWQPRP, the figure is 0.358. Regarding RRIRTRPPRLPRPRPRPYMDPRP, the “shrunken log2 fold change” value was -1.37.

With RRIRDRPPRLPRPRPRPKMWPRP, the “shrunken log2 fold change” value was determined as 0.123. Regarding RRIRERPPRLPRPRPRPRTWPRP, the “shrunken log2 fold change” value is -0.149. Next, RRIRIRPPRLPRPRPRPHFIPRP: -0.564. As for RRIRTRPPRLPRPRPRPVFIPRP, the figure is -0.475. As for RRIRPRPPRLPRPRPRPTWCPRP, the figure is 0.08; as for RRIRYRPPRLPRPRPRPVMCPRP, -0.266.

Regarding RRIRERPPRLPRPRPRPHIIPRP, the “shrunken log2 fold change” value is -0.412.

As for RRIRPRPPRLPRPRPRPWMMPRP, the “shrunken log2 fold change” value is -0.03.

As to RRIRSRPPRLPRPRPRPETTPRP, the “shrunken log2 fold change” value is 0.461. For RRIRFRPPRLPRPRPRPAGLPRP, the “shrunken log2 fold change” value was -0.0796. As to RRIRVRPPRLPRPRPRPAYCPRP, the “shrunken log2 fold change” value was -0.112. As to RRIRARPPRLPRPRPRPKWLPRP, the “shrunken log2 fold change” value was determined as 0.234.

Turning to RRIRSRPPRLPRPRPRPNRHPRP, the “shrunken log2 fold change” value is -0.219. Next, RRIRYRPPRLPRPRPRPTNWPRP: -0.185; RRIRDRPPRLPRPRPRPDMIPRP: 0.0954; RRIRQRPPRLPRPRPRPFMFPRP: -0.144.

As to RRIRGRPPRLPRPRPRPVIRPRP, the “shrunken log2 fold change” value came to 0.177. Next, RRIRNRPPRLPRPRPRPAPNPRP: -0.0796; RRIRYRPPRLPRPRPRPIQDPRP: -0.00166; RRIRLRPPRLPRPRPRPADVPRP: -0.0469. On to RRIRTRPPRLPRPRPRPSYAPRP, for which the “shrunken log2 fold change” value was -0.274. Take RRIRYRPPRLPRPRPRPDCLPRP: the “shrunken log2 fold change” value was -0.209.

For RRIRHRPPRLPRPRPRPVIYPRP, the “shrunken log2 fold change” value is -0.678. Regarding RRIRSRPPRLPRPRPRPNCKPRP, the “shrunken log2 fold change” value is -0.228. For the sequence RRIRQRPPRLPRPRPRPAEEPRP, the “shrunken log2 fold change” value turned out to be 0.0112. As for RRIRYRPPRLPRPRPRPVCCPRP, the figure is -0.644. For the sequence RRIRHRPPRLPRPRPRPNHPPRP, the “shrunken log2 fold change” value was -0.254.

Consider RRIRHRPPRLPRPRPRPVPRPRP, for which the “shrunken log2 fold change” value came out at 0.429.

Regarding RRIRGRPPRLPRPRPRPIVKPRP, the “shrunken log2 fold change” value worked out at 0.328. As for RRIRTRPPRLPRPRPRPHAVPRP, the figure is 0.0205; as for RRIRDRPPRLPRPRPRPMDPPRP, -0.0367; as for RRIRVRPPRLPRPRPRPSMSPRP, -0.147. Take RRIRFRPPRLPRPRPRPEIQPRP: the “shrunken log2 fold change” value came out at 0.0158. Next, RRIRRRPPRLPRPRPRPKPQPRP: 0.403. In the case of RRIRRRPPRLPRPRPRPQDKPRP, the “shrunken log2 fold change” value was -0.289.

With RRIRWRPPRLPRPRPRPRPVPRP, the “shrunken log2 fold change” value is 0.728. With RRIRMRPPRLPRPRPRPAQAPRP, the “shrunken log2 fold change” value turned out to be 0.107. As for RRIRSRPPRLPRPRPRPFPSPRP, the figure is -0.168; as for RRIRRRPPRLPRPRPRPAFMPRP, 0.169. As for RRIRARPPRLPRPRPRPSQQPRP, the figure is -0.0191; as for RRIRVRPPRLPRPRPRPCSVPRP, -0.0384. Turning to RRIRERPPRLPRPRPRPESTPRP, the “shrunken log2 fold change” value worked out at 0.176. On to RRIRERPPRLPRPRPRPPFSPRP, for which the “shrunken log2 fold change” value is -0.241. As for RRIRARPPRLPRPRPRPTEFPRP, the figure is 0.368; as for RRIRKRPPRLPRPRPRPVILPRP, -0.612.

Turning to RRIRCRPPRLPRPRPRPEGVPRP, the “shrunken log2 fold change” value came to 2.48. As for RRIRRRPPRLPRPRPRPRGHPRP, the figure is 2.95. RRIRWRPPRLPRPRPRPRFGPRP: the “shrunken log2 fold change” value came out at 0.395.

With RRIRDRPPRLPRPRPRPACLPRP, the “shrunken log2 fold change” value amounted to 0.723. As for RRIRYRPPRLPRPRPRPSKEPRP, the figure is -0.0167. As for RRIRIRPPRLPRPRPRPRRFPRP, the figure is -0.00443; as for RRIRDRPPRLPRPRPRPLWHPRP, 0.0123; as for RRIRGRPPRLPRPRPRPPLQPRP, 0.641.

Regarding RRIRQRPPRLPRPRPRPRMHPRP, the “shrunken log2 fold change” value was -0.0115.

As for RRIRSRPPRLPRPRPRPRFYPRP, the “shrunken log2 fold change” value was -0.642. Next, RRIRERPPRLPRPRPRPQPKPRP: -0.077; RRIRIRPPRLPRPRPRPHYCPRP: -0.0772. As for RRIRTRPPRLPRPRPRPVCSPRP, the figure is -0.247; as for RRIRYRPPRLPRPRPRPESNPRP, -0.23; as for RRIRVRPPRLPRPRPRPTILPRP, -0.308. As for RRIRARPPRLPRPRPRPHEYPRP, the figure is -0.0609. With RRIRVRPPRLPRPRPRPFYLPRP, the “shrunken log2 fold change” value was -0.449. Next, RRIRTRPPRLPRPRPRPMKAPRP: 0.0679; RRIRVRPPRLPRPRPRPAILPRP: -0.204. As for RRIRFRPPRLPRPRPRPVMIPRP, the figure is 0.122; as for RRIRARPPRLPRPRPRPMGVPRP, 0.103; as for RRIRERPPRLPRPRPRPWPVPRP, -0.643. Turning to RRIRIRPPRLPRPRPRPIKPPRP, the “shrunken log2 fold change” value was -0.254.

RRIRDRPPRLPRPRPRPFWVPRP: the “shrunken log2 fold change” value was -0.222.

On to RRIRTRPPRLPRPRPRPFYSPRP, for which the “shrunken log2 fold change” value was -0.701. As for RRIRLRPPRLPRPRPRPGDLPRP, the “shrunken log2 fold change” value is 0.00844.
